{"source": "patent US20240199761A1", "about": "(AstraZeneca / MedImmune, published 2024)", "binders": {"B1": {"name": "Clone 12 (Bis3, FQQ-YTE; Fab anti-PAD2, scFv anti-PAD4) (bispecific antibody, human IgG1, lambda)", "heavy": "not shown", "light": "SYVLTQPPSVSVSPGQTASITCSGDKVGDKYVSWYQQKPGQSPVLVIYQDSQRPSGIPERFSGSNSGNTATLTISGTQAMDEADYYCQTWAPDVLLFGSGTKVTVLGQPKAAPSVTLFPPSSEELQANKATLVCLISDFYPGAVTVAWKADSSPVKAGVETTTPSKQSNNKYAASSYLSLTPEQWKSHRSYSCQVTHEGSTVEKTVAPTECS", "notes": "Bivalent bispecific IgG-HC-scFv; also called PAD240012; Bis3 = scFv (PAD4)-Fab(PAD2)"}, "B2": {"name": "Clone 12, Bis3 anti-PAD2 Fab / anti-PAD4 scFv, Fc FQQ-YTE (bispecific antibody, human IgG1, lambda)", "heavy": "not shown", "light": "B1 light", "notes": "Bivalent for PAD2 and for PAD4; In the rows marked ^# the antibody was chemically biotinylated; also called PAD240012"}, "B3": {"name": "R347 Bis3 FQQYTE (antibody, human IgG1, lambda)", "light chain": "ELVLTQPASVSGSPGQSITISCTGTSSDVGGYNYVSWYQQHPGKAPKLMIYDVSKRPSGVSNRFSGSKSGNTASLTISGLQAEDEADYYCSSYTSSSTLVFGGGTKLTVLGQPKAAPSVTLFPPSSEELQANKATLVCLISDFYPGAVTVAWKADSSPVKAGVETTTPSKQSNNKYAASSYLSLTPEQWKSHRSYSCQVTHEGSTVEKTVAPTECS", "heavy chain with C-terminal scFv": "EVQLLESGGGLVQPGGSLRLSCTTSGFTFNTYAMSWVRQAPGKGLEWLSGINNNGRTAFYADSVKGRFTISRDNSKNTLYLQINSLRADDTAVYFCAKDVRFIAVPGDSWGQGTLVTVSSASTKGPSVFPLAPSSKSTSGGTAALGCLVKDYFPEPVTVSWNSGALTSGVHTFPAVLQSSGLYSLSSVVTVPSSSLGTQTYICNVNHKPSNTKVDKRVEPKSCDKTHTCPPCPAPEFQGGPSVFLFPPKPKDTLYITREPEVTCVVVDVSHEDPEVKFNWYVDGVEVHNAKTKPREEQYNSTYRVVSVLTVLHQDWLNGKEYKCQVSNKALPAPIEKTISKAKGQPREPQVYTLPPSREEMTKNQVSLTCLVKGFYPSDIAVEWESNGQPENNYKTTPPVLDSDGSFFLYSKLTVDKSRWQQGNVFSCSVMHEALHNHYTQKSLSLSPGKGGGGSGGGGSEVQLLESGGGLVQPGGSLRLSCTTSGFTFNTYAMSWVRQAPGKGLEWLSGINNNGRTAFYADSVKGRFTISRDNSKNTLYLQINSLRADDTAVYFCAKDVRFIAVPGDSWGQGTLVTVSSGGGGSGGGGSGGGGSGGGGSELVLTQPASVSGSPGQSITISCTGTSSDVGGYNYVSWYQQHPGKAPKLMIYDVSKRPSGVSNRFSGSKSGNTASLTISGLQAEDEADYYCSSYTSSSTLVFGGGTKLTVL", "notes": "also called Bis3 control (R347)"}, "B4": {"name": "Clone 22 (141LO0035 hIgG1 pgl-4), anti-PAD2, as Fab (Fab, V domains shown)", "VH": "not shown", "VL": "SYVLTQPPSVSVSPGQTASITCSGDKVGDKYVSWYQQKPGQSPVLVIYQDSQRPSGIPERFSGSNSGNTATLTISGTQAMDEADYYCQTWAPDVLLFGSGTKVTVL", "notes": "also called Clone 22 (Fab); anti-PAD2 Fab"}, "B5": {"name": "Clone 22 (Fab) (141LO0035 hIgG1 pgl-4) (Fab, V domains shown)", "VH": "not shown", "VL": "B4 VL", "notes": "Tested as a Fab; Only the variable domains are tied to Clone 22; also called anti-PAD2 Fab"}, "B6": {"name": "anti-PAD2 Clone 22 (141LO0035 hIgG1 pgl-4), Fab (Fab, V domains shown)", "VH": "not shown", "VL": "B4 VL", "notes": "Tested as Fab; also called Clone 22 (Fab)"}}, "key": {"huFcRn": {"molecular_target": "T1, huFcRn (human, UniProt P55899 24-297; P61769 21-119, limits assumed)", "T1 construct": "also called human neonatal Fc receptor", "T1 sequence (P55899 24-297 limits assumed, chain 1 of 2)": "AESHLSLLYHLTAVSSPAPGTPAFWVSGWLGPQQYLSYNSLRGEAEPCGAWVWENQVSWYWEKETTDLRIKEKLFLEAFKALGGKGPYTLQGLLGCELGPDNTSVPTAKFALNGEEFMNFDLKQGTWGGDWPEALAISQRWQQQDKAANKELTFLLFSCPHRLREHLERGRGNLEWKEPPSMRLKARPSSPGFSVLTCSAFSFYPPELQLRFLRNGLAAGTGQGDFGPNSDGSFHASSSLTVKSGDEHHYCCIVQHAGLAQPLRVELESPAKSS", "T1 sequence (P61769 21-119 limits assumed, chain 2 of 2)": "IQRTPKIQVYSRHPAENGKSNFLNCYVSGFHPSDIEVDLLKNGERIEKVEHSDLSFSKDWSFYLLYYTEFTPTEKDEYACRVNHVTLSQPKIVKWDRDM", "test": "huFcRn affinity chromatography, pH gradient elution"}, "recombinant mouse PAD2 [1]": {"molecular_target": "T2, recombinant mouse PAD2 (mouse, UniProt Q08642 1-673)", "T2 construct": "Recombinant and tagged", "T2 sequence (Q08642 whole entry)": "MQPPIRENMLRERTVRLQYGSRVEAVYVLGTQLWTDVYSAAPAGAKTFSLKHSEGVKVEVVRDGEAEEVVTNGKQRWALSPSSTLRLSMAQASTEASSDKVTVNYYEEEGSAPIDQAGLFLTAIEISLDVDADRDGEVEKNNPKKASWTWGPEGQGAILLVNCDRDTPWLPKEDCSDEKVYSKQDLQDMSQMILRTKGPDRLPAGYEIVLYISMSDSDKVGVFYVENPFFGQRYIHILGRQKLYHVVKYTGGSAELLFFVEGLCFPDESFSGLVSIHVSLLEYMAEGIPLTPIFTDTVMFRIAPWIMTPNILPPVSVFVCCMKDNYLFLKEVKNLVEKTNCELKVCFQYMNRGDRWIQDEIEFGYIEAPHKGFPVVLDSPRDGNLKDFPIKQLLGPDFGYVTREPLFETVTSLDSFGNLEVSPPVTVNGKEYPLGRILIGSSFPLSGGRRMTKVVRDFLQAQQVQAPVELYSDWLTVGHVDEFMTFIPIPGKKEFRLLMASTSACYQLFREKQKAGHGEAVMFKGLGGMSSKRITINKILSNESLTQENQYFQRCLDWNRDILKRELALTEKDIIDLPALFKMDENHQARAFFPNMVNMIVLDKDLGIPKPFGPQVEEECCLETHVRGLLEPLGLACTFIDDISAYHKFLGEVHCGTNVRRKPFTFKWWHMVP", "test": "ratio of SPR KDs, mouse PAD2 against human PAD2; biotinylated antibody captured on C1-streptavidin, PAD flowed over"}, "[2]": {"molecular_target": "T3, mouse PAD2, recombinant, tags at the N-terminus (mouse, UniProt Q08642 1-673, enzymatically biotinylated on an Avi-tag where captured on streptavidin)", "T3 construct": "not shown: N-terminal tags incl; Avi-tag", "T3 sequence (Q08642 whole entry)": "as above", "test": "SPR; biotinylated antibody on C1-streptavidin, PAD2 flowed over"}, "[3]": {"molecular_target": "T4, cynomolgus PAD2, recombinant, tags at the N-terminus (cynomolgus, UniProt G7NUR0 1-665, enzymatically biotinylated on an Avi-tag where captured on streptavidin)", "T4 construct": "also called Cyno PAD2; not shown: N-terminal tags incl; Avi-tag", "T4 sequence (G7NUR0 entry or part of it)": "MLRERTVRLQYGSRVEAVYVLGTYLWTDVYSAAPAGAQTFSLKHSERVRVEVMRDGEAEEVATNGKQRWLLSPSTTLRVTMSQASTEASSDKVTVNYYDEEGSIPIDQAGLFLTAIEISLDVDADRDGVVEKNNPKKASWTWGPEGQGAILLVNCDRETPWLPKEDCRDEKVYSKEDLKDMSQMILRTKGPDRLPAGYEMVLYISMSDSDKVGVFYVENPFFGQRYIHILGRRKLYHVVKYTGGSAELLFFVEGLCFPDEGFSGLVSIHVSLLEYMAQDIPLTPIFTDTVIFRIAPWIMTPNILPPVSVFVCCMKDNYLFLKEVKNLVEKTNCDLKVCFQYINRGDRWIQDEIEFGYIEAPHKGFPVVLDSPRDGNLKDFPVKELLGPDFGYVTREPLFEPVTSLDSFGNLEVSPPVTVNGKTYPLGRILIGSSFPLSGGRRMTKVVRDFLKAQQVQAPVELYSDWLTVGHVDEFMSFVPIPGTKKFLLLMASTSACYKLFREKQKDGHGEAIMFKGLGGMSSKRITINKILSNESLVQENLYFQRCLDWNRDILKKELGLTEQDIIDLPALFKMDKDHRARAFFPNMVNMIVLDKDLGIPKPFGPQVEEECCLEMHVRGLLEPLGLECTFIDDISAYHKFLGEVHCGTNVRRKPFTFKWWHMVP", "test": "SPR; biotinylated antibody on C1-streptavidin, PAD2 flowed over"}, "[4]": {"molecular_target": "T5, human PAD2, recombinant, tags at the N-terminus (human, UniProt Q9Y2J8 1-665, enzymatically biotinylated on an Avi-tag where captured on streptavidin)", "T5 construct": "not shown: N-terminal tags incl; Avi-tag", "T5 sequence (Q9Y2J8 whole entry)": "as the sequence (G7NUR0 entry or part of it) above, with R47H, R49W, M53V, M200I, D334E, I342L, P401S, K577E counted along it", "test": "SPR; biotinylated antibody on C1-streptavidin, PAD2 flowed over"}, "[5]": {"molecular_target": "T3, mouse PAD2, recombinant, tags at the …", "test": "SPR; biotinylated antibody on C1-streptavidin, PAD2 flowed over", "remark": "listed apart in the source"}, "[6]": {"molecular_target": "T4, cynomolgus PAD2, recombinant, tags at …", "test": "SPR; biotinylated antibody on C1-streptavidin, PAD2 flowed over", "remark": "listed apart in the source"}, "[7]": {"molecular_target": "T5, human PAD2, recombinant, tags at the …", "test": "SPR; biotinylated antibody on C1-streptavidin, PAD2 flowed over", "remark": "listed apart in the source"}, "[8]": {"molecular_target": "T6, PAD2 (species not stated) (Homo sapiens (Human), UniProt Q9Y2J8 1-665, Biotinylated in the specificity ELISA. The SPR material was enzymatically biotinylated on an Avi-tag.)", "T6 construct": "Biotinylated in the specificity ELISA; also called biotinylated PAD2; not shown: Avi-tag and any purification tag on the recombinant PAD2", "T6 sequence (Q9Y2J8 whole entry)": "as the sequence (G7NUR0 entry or part of it) above, with R47H, R49W, M53V, M200I, D334E, I342L, P401S, K577E counted along it", "test": "specificity ELISA: biotinylated PAD on a streptavidin plate, detection with anti-human IgG Fc HRP, fluorescence (RFU); antibody concentration not given"}, "[9]": {"molecular_target": "T7, PAD4 (species not stated) (Homo sapiens (Human), UniProt Q9UM07 1-663, Biotinylated in the specificity ELISA. The SPR material was enzymatically biotinylated on an Avi-tag.)", "T7 construct": "Biotinylated in the specificity ELISA; monomer and dimer forms seen in iSCAT; also called biotinylated PAD4; not shown: Avi-tag and any purification tag on the recombinant PAD4", "T7 sequence (Q9UM07 whole entry)": "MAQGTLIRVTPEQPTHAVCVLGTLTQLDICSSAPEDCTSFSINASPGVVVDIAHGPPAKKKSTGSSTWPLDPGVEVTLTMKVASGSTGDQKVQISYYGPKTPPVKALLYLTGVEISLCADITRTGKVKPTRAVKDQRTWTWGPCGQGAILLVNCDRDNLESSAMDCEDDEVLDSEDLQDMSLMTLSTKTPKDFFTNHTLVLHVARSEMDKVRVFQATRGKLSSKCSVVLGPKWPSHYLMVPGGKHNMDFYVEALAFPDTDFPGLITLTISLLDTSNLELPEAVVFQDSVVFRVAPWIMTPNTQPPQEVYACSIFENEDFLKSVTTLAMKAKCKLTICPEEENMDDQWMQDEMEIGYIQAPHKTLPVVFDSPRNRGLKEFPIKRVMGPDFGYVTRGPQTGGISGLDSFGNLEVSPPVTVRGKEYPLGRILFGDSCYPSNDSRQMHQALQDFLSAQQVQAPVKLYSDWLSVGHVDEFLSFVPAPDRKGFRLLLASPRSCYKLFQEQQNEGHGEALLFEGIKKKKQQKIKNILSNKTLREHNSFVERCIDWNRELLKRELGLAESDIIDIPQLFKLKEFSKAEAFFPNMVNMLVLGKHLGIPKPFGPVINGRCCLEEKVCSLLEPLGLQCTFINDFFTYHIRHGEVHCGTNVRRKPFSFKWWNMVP", "test": "specificity ELISA: biotinylated PAD on a streptavidin plate, detection with anti-human IgG Fc HRP, fluorescence (RFU); antibody concentration not given"}, "recombinant human PAD4": {"molecular_target": "T8, recombinant human PAD4 (human, UniProt Q9UM07 1-663, enzymatically biotinylated on an Avi-tag (when captured on the SPR chip))", "T8 construct": "also called hPAD4; Human PAD4 (RD223)", "T8 sequence (Q9UM07 whole entry)": "as above", "test": "specificity ELISA: biotinylated PAD on a streptavidin plate, detection with anti-human IgG Fc HRP, Binding (RFU); antibody concentration not given"}, "recombinant human PAD2 [10]": {"molecular_target": "T9, recombinant human PAD2 (human, UniProt Q9Y2J8 1-665, enzymatically biotinylated on an Avi-tag (when captured on the SPR chip))", "T9 construct": "also called hPAD2; Human PAD2 (RD220)", "T9 sequence (Q9Y2J8 whole entry)": "as the sequence (G7NUR0 entry or part of it) above, with R47H, R49W, M53V, M200I, D334E, I342L, P401S, K577E counted along it", "test": "specificity ELISA: biotinylated PAD on a streptavidin plate, detection with anti-human IgG Fc HRP, Binding (RFU); antibody concentration not given"}, "recombinant human PAD2 [11]": {"molecular_target": "T9, recombinant human PAD2", "test": "SPR (Biacore 8K), N-terminally tagged against C-terminally tagged recombinant PAD2"}, "recombinant mouse PAD2 [12]": {"molecular_target": "T2, recombinant mouse PAD2", "test": "ratio of SPR KDs, mouse PAD2 against human PAD2; biotinylated PAD captured on C1-streptavidin, antibody flowed over"}, "[13]": {"molecular_target": "T3, mouse PAD2, recombinant, tags at the …", "test": "SPR; biotinylated PAD2 on C1-streptavidin, antibody flowed over"}, "[14]": {"molecular_target": "T4, cynomolgus PAD2, recombinant, tags at …", "test": "SPR; biotinylated PAD2 on C1-streptavidin, antibody flowed over"}, "[15]": {"molecular_target": "T5, human PAD2, recombinant, tags at the …", "test": "SPR; biotinylated PAD2 on C1-streptavidin, antibody flowed over"}, "[16]": {"molecular_target": "T3, mouse PAD2, recombinant, tags at the …", "test": "SPR; biotinylated PAD2 on C1-streptavidin, antibody flowed over", "remark": "listed apart in the source"}, "[17]": {"molecular_target": "T4, cynomolgus PAD2, recombinant, tags at …", "test": "SPR; biotinylated PAD2 on C1-streptavidin, antibody flowed over", "remark": "listed apart in the source"}, "[18]": {"molecular_target": "T5, human PAD2, recombinant, tags at the …", "test": "SPR; biotinylated PAD2 on C1-streptavidin, antibody flowed over", "remark": "listed apart in the source"}}}
{"binder": "B1", "values": [{"measurement": "HPLC retention", "setting": "huFcRn", "result": 22.8, "unit": "min"}, {"measurement": "Relative retention", "setting": "huFcRn", "result": 0.746}, {"measurement": "fold difference in KD, mouse/human", "setting": "recombinant mouse PAD2 [1]", "result": 2.1, "unit": "fold"}]}
{"binder": "B2", "values": [{"measurement": "Kd", "setting": "[2]", "result": 0.0142, "unit": "nM"}, {"measurement": "koff", "setting": "[2]", "result": "6.89e-05", "unit": "s⁻¹"}, {"measurement": "kon", "setting": "[2]", "result": "4.85e+06", "unit": "M⁻¹ s⁻¹"}, {"measurement": "Kd", "setting": "[3]", "result": 0.0138, "unit": "nM"}, {"measurement": "koff", "setting": "[3]", "result": "5.74e-05", "unit": "s⁻¹"}, {"measurement": "kon", "setting": "[3]", "result": "4.19e+06", "unit": "M⁻¹ s⁻¹"}, {"measurement": "Kd", "setting": "[4]", "result": 0.00676, "unit": "nM"}, {"measurement": "koff", "setting": "[4]", "result": "4.05e-05", "unit": "s⁻¹"}, {"measurement": "kon", "setting": "[4]", "result": "5.6e+06", "unit": "M⁻¹ s⁻¹"}, {"measurement": "Kd", "setting": "[5]", "result": 0.0142, "unit": "nM"}, {"measurement": "Kd", "setting": "[6]", "result": 0.0138, "unit": "nM"}, {"measurement": "Kd", "setting": "[7]", "result": 0.00676, "unit": "nM"}]}
{"binder": "B3", "values": [{"measurement": "binding result", "setting": "[8]", "result": "no binding"}, {"measurement": "binding result", "setting": "[9]", "result": "no binding"}, {"measurement": "binding result", "setting": "recombinant human PAD4", "result": "no binding"}, {"measurement": "binding result", "setting": "recombinant human PAD2 [10]", "result": "no binding"}]}
{"binder": "B4", "values": [{"measurement": "fold higher affinity than in the previous assay (Table 69)", "setting": "recombinant human PAD2 [11]", "result": 10, "unit": "fold"}]}
{"binder": "B5", "values": [{"measurement": "fold difference in KD, mouse/human", "setting": "recombinant mouse PAD2 [12]", "result": 10, "unit": "fold"}]}
{"binder": "B6", "values": [{"measurement": "Kd", "setting": "[13]", "result": 0.131, "unit": "nM"}, {"measurement": "koff", "setting": "[13]", "result": 0.000462, "unit": "s⁻¹"}, {"measurement": "kon", "setting": "[13]", "result": "3.59e+06", "unit": "M⁻¹ s⁻¹"}, {"measurement": "Kd", "setting": "[14]", "result": 0.0292, "unit": "nM"}, {"measurement": "koff", "setting": "[14]", "result": "7.03e-05", "unit": "s⁻¹"}, {"measurement": "kon", "setting": "[14]", "result": "2.39e+06", "unit": "M⁻¹ s⁻¹"}, {"measurement": "Kd", "setting": "[15]", "result": 0.0131, "unit": "nM"}, {"measurement": "koff", "setting": "[15]", "result": "4.77e-05", "unit": "s⁻¹"}, {"measurement": "kon", "setting": "[15]", "result": "3.67e+06", "unit": "M⁻¹ s⁻¹"}, {"measurement": "Kd", "setting": "[16]", "result": 0.131, "unit": "nM"}, {"measurement": "Kd", "setting": "[17]", "result": 0.0292, "unit": "nM"}, {"measurement": "Kd", "setting": "[18]", "result": 0.0131, "unit": "nM"}]}
